Where a chain is given by its changes, count along the chain named.
Legend:
Experiment in all cases: cleavage_in_vitro
[1] = molecular target: T1, BamHI (Bacillus amyloliquefaciens) (UniProt P23940); conditions: NEB4, 37 C, Mg2+
T1 sequence: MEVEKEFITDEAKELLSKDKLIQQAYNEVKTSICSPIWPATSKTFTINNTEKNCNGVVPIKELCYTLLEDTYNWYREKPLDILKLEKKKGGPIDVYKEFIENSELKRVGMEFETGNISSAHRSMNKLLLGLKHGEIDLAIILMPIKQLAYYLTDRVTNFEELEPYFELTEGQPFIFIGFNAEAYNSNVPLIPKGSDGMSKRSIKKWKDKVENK

[2] = system: T2, BsmBI-HF N185Y/R232A (Bacillus stearothermophilus); conditions: NEB4, 55 C, Mg2+
T2 sequence: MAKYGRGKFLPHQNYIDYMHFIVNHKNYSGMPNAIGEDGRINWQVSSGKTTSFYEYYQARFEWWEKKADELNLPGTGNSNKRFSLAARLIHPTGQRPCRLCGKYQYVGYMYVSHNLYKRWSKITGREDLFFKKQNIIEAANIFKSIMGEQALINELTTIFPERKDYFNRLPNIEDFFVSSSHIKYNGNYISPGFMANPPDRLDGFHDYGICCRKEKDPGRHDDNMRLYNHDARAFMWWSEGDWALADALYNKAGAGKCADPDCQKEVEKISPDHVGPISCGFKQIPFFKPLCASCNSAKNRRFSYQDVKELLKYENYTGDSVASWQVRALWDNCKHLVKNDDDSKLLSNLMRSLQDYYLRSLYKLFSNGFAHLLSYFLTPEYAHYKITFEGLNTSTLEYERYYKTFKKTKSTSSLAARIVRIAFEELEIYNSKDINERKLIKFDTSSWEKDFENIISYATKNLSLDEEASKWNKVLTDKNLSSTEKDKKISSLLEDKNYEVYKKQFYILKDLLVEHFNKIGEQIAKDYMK

BstXI-HF N65A = conditions: NEB4, 55 C, Mg2+
[3] = molecular target: EcoRI (Escherichia coli RY13) (UniProt P00642); conditions: NEB4, 37 C, Mg2+; 250 in NEB1 and NEB3
[4] = molecular target: EcoRI-HF K62E (Escherichia coli RY13) (UniProt P00642); conditions: NEB4, 37 C, Mg2+
[5] = molecular target: T3, HpaI (Haemophilus parainfluenzae) (UniProt P29537); conditions: NEB4, 37 C, Mg2+
T3 sequence: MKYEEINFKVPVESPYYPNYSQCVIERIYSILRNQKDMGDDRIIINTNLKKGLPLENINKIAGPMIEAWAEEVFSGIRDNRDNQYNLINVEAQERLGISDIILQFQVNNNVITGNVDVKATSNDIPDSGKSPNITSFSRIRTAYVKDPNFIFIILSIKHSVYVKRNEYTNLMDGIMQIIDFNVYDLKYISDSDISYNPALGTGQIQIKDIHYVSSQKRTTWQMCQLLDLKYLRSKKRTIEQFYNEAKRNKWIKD

[6] = system: T4, NcoI-HF A2T/R31A (Nocardia corallina); conditions: NEB4, 37 C, Mg2+
T4 sequence: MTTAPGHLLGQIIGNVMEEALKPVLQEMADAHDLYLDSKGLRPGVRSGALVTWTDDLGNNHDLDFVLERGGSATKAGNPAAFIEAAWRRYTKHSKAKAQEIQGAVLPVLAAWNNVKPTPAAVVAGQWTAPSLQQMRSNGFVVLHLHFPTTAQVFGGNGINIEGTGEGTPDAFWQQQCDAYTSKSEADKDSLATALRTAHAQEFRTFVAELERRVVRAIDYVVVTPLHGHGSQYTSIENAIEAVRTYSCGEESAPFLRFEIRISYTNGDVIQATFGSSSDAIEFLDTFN

[7] = molecular target: T5, ScaI-HF H193A/S201F (Streptomyces caespitosus) (UniProt O52691); conditions: NEB4, 37 C, Mg2+
T5 sequence: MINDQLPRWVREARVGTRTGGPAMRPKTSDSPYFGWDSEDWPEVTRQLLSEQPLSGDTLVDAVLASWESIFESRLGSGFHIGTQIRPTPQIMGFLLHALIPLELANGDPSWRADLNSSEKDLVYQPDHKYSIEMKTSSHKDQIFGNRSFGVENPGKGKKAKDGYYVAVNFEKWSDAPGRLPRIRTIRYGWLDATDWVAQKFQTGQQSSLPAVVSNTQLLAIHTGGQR

[8] = system: T6, SphI (Streptomyces phaeochromogenes); conditions: NEB4, 37 C, Mg2+
T6 sequence: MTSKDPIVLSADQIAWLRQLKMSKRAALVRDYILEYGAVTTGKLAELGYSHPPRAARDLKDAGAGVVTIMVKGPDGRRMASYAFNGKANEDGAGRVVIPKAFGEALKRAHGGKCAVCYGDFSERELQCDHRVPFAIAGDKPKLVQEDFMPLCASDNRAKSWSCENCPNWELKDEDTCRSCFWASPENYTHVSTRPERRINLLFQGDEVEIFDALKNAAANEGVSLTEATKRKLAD

[9] = system: T7, SphI-HF K100A (Streptomyces phaeochromogenes); conditions: NEB4, 37 C, Mg2+
T7 sequence: T6 sequence with K100A

[10] = system: T8, SspI (Sphaerotilus species); conditions: NEB4, 37 C, Mg2+
T8 sequence: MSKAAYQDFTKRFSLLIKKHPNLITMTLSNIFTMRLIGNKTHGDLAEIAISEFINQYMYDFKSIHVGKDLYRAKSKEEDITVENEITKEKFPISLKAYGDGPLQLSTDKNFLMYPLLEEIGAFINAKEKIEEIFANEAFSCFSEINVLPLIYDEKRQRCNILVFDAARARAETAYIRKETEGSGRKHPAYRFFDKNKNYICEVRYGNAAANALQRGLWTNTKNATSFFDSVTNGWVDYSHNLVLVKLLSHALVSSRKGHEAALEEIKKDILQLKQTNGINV

[11] = system: T9, SspI-HF Y98F (Sphaerotilus species); conditions: NEB4, 37 C, Mg2+
T9 sequence: T8 sequence with Y98F

lambda DNA
activity (fidelity index) [1]: 4
activity (fidelity index) [2]: > 500
activity (fidelity index) (BstXI-HF N65A): > 250
activity (fidelity index) [3]: 4
activity (fidelity index) [4]: 16000
activity (fidelity index) [5]: 16
activity (fidelity index) [6]: > 64000
activity (fidelity index) [7]: 1000
activity (fidelity index) [8]: 16
activity (fidelity index) [9]: 8000
activity (fidelity index) [10]: 16
activity (fidelity index) [11]: 500
